Test results published in publication PMC3182943, “Monalysin, a Novel ß-Pore-Forming Toxin from the Drosophila Pathogen Pseudomonas entomophila, Contributes to Host Intestinal Damage and Lethality” (PLoS Pathogens, 2011).

Molecular target: the molecule itself
Assay: SEC-MALS; Silica Gel KW804 column (Shodex), 10 mM Tris, 150 mM NaCl, pH 7.5, 0.5 ml/min; MALS/UV/RI with quasi-elastic light scattering; protein loaded at 0.02 mM

B1: recombinant pro-Monalysin (natural protein)
chain: MTIKEELGQPQSHSIELDEVSKEAASTRAALTSNLSGRFDQYPTKKGDFAIDGYLLDYSSPKQGCWVDGITVYGDIYIGKQNWGTYTRPVFAYLQYVETISIPQNVTTTLSYQLTKGHTRSFETSVNAKYSVGANIDIVNVGSEISTGFTRSESWSTTQSFTDTTEMKGPGTFVIYQVVLVYAHNATSAGRQNANAFAYSKTQAVGSRVDLYYLSAITQRKRVIVPSSNAVTPLDWDTVQRNVLMENYNPGSNSGHFSFDWSAYNDPHRRY
notes: Monalysin (pro-form, pore-forming toxin) of Pseudomonas entomophila L48, ORF PSEEN3174, residues 1 to 271; 30.2 kDa by MALDI-TOF, called the full-length pro-toxin; TRX-His6-TEV fusion from the vector pETG-20A, removed by His-TEV protease; The text mostly calls this protein 'Monalysin' or 'recombinant Monalysin'; upon storage at 4°C it turns partly into the shorter form; Oligomer of about 18 …
  stoichiometry N: ~18 monomers
